Key:
[1] = biological target: T1, rat semaphorin receptor 1 (rSR1), full length, expressed on cells (rat, UniProt Q9QWJ9 22-922); assay: binding to transfected COS-7 cells
T1 construct: also called rat SR1; p28
T1 sequence: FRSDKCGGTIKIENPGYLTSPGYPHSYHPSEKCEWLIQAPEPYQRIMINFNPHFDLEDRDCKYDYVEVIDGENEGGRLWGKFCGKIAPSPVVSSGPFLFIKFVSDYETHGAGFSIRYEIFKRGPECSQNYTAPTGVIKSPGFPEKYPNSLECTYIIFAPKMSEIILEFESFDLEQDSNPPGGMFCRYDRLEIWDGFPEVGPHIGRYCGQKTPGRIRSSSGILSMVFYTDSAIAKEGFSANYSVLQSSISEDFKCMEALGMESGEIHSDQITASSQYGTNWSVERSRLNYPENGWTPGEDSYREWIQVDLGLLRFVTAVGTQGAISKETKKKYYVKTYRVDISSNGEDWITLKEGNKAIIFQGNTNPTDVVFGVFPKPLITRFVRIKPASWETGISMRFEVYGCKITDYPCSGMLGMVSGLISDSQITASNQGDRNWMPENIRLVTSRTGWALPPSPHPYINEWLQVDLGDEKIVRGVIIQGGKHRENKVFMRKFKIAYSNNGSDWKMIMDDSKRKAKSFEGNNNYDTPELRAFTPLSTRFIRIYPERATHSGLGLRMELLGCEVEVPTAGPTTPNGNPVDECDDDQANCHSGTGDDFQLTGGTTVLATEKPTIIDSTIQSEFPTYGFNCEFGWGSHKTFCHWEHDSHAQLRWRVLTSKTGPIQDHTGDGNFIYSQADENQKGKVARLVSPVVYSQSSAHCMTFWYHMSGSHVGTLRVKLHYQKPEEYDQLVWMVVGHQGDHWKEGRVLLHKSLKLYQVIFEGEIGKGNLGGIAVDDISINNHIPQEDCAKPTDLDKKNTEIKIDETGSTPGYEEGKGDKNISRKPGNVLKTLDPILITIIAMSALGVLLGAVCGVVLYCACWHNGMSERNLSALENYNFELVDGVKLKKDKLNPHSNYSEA

[2] = biological target: T2, mouse neuropilin-2(a0), myc-tagged, expressed in COS-7 cells (mouse, UniProt O35375 21-931); assay: AP histochemistry on transfected COS cells
T2 construct: also called SR2(a)0; m-npn-2
T2 sequence: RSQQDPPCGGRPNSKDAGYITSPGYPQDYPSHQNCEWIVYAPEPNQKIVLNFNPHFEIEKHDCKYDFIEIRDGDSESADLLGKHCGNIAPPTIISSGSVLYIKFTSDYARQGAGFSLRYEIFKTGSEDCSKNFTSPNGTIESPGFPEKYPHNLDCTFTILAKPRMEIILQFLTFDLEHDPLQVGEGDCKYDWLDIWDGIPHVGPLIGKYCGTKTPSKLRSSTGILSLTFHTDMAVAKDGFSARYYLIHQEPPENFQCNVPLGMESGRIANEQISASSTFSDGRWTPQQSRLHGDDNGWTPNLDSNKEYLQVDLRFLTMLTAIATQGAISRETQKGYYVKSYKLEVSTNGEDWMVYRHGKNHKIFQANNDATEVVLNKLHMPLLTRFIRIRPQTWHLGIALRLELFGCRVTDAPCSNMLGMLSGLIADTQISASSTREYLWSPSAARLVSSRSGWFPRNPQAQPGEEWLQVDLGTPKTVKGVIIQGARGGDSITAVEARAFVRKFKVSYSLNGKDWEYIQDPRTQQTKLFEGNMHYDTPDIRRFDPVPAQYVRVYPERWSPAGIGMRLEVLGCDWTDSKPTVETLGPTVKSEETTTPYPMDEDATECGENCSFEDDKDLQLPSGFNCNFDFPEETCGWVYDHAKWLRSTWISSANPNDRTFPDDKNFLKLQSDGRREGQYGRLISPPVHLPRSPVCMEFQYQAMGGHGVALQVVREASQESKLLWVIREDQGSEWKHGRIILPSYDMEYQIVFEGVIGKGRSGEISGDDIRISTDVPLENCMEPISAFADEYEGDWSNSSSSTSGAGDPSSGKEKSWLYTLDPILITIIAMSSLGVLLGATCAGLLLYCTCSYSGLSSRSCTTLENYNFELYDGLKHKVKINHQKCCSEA

[3] = biological target: T3, mouse neuropilin-2(a5), myc-tagged, expressed in COS-7 cells (mouse, UniProt O35375 21-931); assay: AP histochemistry on transfected COS cells
T3 construct: also called a5 isoform of neuropilin-2; SR2(a)5
T3 sequence: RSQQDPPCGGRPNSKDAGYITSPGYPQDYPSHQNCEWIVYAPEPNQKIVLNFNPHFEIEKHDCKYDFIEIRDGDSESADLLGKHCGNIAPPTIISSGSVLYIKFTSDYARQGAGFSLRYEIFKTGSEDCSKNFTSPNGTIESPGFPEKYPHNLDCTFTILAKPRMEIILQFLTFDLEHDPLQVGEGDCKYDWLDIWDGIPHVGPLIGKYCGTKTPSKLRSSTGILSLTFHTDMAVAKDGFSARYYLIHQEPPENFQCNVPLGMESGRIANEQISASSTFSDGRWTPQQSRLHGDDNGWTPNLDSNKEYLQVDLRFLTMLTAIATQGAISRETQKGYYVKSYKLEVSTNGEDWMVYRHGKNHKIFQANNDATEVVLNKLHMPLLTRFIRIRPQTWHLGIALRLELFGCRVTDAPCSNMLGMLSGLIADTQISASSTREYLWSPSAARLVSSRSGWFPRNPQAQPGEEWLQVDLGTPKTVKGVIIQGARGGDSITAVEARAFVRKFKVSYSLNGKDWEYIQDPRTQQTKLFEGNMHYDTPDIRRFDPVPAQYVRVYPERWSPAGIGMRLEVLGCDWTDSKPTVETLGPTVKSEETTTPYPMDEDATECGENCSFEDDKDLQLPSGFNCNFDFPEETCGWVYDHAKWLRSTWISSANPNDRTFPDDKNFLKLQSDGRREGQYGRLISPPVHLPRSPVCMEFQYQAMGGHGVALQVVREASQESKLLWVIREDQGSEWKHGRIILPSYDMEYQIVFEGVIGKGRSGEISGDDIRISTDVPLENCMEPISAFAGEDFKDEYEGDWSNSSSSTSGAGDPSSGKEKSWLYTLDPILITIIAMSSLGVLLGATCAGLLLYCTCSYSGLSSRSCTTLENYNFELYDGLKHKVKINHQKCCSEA

[4] = biological target: T4, mouse neuropilin-2(a22), myc-tagged, expressed in COS-7 cells (mouse, UniProt O35375 21-931); assay: AP histochemistry on transfected COS cells
T4 construct: also called SR2(a)22
T4 sequence: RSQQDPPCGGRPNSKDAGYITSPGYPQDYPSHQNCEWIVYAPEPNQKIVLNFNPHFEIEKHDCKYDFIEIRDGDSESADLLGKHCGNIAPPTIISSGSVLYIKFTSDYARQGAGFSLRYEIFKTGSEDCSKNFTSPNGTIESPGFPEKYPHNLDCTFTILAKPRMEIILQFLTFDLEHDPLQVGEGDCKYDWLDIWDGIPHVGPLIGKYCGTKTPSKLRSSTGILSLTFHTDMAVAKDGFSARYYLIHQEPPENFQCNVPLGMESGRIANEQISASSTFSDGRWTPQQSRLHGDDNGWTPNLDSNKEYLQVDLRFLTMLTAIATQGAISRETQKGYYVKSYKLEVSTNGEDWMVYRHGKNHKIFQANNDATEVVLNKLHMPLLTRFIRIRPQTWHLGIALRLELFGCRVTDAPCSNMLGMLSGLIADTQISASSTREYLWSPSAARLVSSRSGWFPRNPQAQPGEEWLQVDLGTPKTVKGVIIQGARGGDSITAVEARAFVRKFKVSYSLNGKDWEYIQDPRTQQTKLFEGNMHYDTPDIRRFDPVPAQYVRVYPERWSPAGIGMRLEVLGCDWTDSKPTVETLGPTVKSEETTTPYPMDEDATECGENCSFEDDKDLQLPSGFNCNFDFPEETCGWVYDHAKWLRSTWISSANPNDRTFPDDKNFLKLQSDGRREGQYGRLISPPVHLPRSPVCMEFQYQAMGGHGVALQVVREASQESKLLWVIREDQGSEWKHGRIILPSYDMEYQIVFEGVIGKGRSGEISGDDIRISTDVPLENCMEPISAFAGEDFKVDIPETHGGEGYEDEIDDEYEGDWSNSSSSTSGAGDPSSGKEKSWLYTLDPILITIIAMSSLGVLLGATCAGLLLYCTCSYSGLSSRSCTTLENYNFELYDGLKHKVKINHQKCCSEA

Measured: binding result

B1: alkaline phosphatase (AP) alone (enzyme, UniProt P05187 23-511, looked up)
chain: IIPVEEENPDFWNREAAEALGAAKKLQPAQTAAKNLIIFLGDGMGVSTVTAARILKGQKKDKLGPEIPLAMDRFPYVALSKTYNVDKHVPDSGATATAYLCGVKGNFQTIGLSAAARFNQCNTTRGNEVISVMNRAKKAGKSVGVVTTTRVQHASPAGTYAHTVNRNWYSDADVPASARQEGCQDIATQLISNMDIDVILGGGRKYMFRMGTPDPEYPDDYSQGGTRLDGKNLVQEWLAKRQGARYVWNRTELMQASLDPSVTHLMGLFEPGDMKYEIHRDSTLDPSLMEMTEAALRLLSRNPRGFFLFVEGGRIDHGHHESRAYRALTETIMFDDAIERAGQLTSEEDTLSLVTADHSHVFSFGGYPLRGSSIFGLAPGKARDRKAYTVLLYGNGPGYVLKDGARPDVTESESGSPEYRQQSAVPLDEETHAGEDVAVFARGPQAHLVHGVQEQTFIAHVMAFAACLEPYTACDLAPPAGTTDAAHPG
notes: Control protein; also called alkaline phosphatase protein
no binding: all assays above
